Data on two molecules can be found in patent US20200197483A1 (MOREHOUSE SCHOOL OF MEDICINE, published 2020).

One assay addresses T1, Mortalin (UniProt P38646 47-679).
T1 construct: Endogenous protein pulled down from Jurkat cell lysate (a human T cell line); also called Glucose-regulated protein 75 (GRP75)
Briefly: immunoprecipitation from Jurkat lysate, Western blot with anti-mortalin antibody.

A further assay has as its target T2, E. coli DnaK protein (Escherichia coli, UniProt P0A6Y8 2-638).
T2 construct: Endogenous protein in E. coli lysate; also called heat shock protein 70 (Hsp70)
Nature of the assay: ANTI-FLAG M2 immunoprecipitation from E. coli lysate, Western blot with anti-DnaK antibody.

T2 sequence (P0A6Y8 2-638 limits assumed): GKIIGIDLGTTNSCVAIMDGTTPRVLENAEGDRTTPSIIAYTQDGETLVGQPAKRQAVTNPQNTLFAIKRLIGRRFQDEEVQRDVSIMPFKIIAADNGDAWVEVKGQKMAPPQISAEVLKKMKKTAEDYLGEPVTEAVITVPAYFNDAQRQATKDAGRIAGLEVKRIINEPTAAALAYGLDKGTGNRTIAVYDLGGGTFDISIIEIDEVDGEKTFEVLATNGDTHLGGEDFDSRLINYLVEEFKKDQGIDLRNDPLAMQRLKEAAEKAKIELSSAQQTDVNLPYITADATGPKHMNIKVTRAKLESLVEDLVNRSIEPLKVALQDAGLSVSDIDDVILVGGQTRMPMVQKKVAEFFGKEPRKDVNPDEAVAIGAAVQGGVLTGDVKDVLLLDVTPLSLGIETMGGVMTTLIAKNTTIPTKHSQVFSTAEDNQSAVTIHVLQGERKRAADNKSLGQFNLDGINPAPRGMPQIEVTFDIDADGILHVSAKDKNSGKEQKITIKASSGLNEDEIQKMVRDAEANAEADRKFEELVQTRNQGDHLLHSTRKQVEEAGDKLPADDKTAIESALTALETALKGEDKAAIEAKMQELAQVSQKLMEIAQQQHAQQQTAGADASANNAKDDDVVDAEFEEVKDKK
T1 sequence (P38646 47-679 limits assumed): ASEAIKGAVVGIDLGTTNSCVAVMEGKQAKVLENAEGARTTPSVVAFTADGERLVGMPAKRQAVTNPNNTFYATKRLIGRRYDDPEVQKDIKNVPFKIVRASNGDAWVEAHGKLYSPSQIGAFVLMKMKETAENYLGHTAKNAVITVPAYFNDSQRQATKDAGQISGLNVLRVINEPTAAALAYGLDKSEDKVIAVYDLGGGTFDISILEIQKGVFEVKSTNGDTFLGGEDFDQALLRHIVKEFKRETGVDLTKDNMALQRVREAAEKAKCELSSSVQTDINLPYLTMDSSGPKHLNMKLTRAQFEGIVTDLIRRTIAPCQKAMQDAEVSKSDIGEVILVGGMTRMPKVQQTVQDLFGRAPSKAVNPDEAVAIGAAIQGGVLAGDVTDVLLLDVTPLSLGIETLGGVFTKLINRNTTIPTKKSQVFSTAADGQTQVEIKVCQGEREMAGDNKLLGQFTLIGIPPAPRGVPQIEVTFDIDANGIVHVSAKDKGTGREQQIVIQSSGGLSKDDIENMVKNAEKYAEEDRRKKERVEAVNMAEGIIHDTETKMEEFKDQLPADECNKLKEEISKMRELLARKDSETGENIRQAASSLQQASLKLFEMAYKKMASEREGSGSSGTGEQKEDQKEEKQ

B1: HIV-1 Nef SMRwt peptide (peptide)
peptide: VGFPVAAVGFPVDYKDDDDK
notes: Synthetic peptide with two SMR motifs and a C-terminal FLAG tag; also called SMRwt (wide-type) peptide; antagonist peptide
Take B1: the binding result with Mortalin and with E. coli DnaK protein was “binds” throughout.

B2: HIV-1 Nef SMRmut peptide (peptide)
peptide: AGFPVAAAGFPVDYKDDDDK
notes: Synthetic negative control peptide; the first valine of each VGFPV motif is changed to alanine; also called SMRmut (mutant) peptide; negative control peptide
As for B2, the binding result with Mortalin is “no binding”; with E. coli DnaK protein, “no binding (tested: 1 µg peptide with 1 mg E. coli lysate)”.
